# Laboratory results taken from publication PMC9441902.
# Target: LrsL (quorum quenching lactonase of Labrenzia sp. VG12), recombinant catalytic domain without the N-terminal 47 residues (Labrenzia sp. VG12)
# Test: SEC-MALS; Superdex 200 10/300; 5.5 mg/ml LrsL injected; 20 mM HEPES, pH 7.5, 200 mM NaCl, 1 mM TCEP, 0.01% NaN3
substance,measurement,value
"LrsL (quorum quenching lactonase of Labrenzia sp. VG12), recombinant catalytic domain without the N-terminal 47 residues (enzyme)",stoichiometry N,2
